Experimental data as given in publication PMC12316515, “PIF4‐dependent 2‐hydroxymelatonin and 3‐hydroxymelatonin biosynthesis is involved in skotomorphogenic seedling growth in Arabidopsis thaliana”.

T1: Trx-PIF4 (Arabidopsis thaliana, UniProt Q8W2F3 1-430)
T1 sequence: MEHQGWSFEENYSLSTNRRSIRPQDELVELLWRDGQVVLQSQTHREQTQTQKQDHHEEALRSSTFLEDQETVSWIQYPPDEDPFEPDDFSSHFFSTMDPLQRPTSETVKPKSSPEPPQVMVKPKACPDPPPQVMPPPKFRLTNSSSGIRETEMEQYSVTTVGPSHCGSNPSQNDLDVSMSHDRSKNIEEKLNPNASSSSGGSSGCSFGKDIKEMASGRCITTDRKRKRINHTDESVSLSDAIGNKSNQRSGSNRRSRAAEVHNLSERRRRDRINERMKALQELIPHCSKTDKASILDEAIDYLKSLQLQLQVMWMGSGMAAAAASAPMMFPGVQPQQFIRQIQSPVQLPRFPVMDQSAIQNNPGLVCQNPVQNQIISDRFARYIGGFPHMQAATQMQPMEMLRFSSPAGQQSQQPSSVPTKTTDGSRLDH

B1: M3H E3 (dsDNA)
DNA 1: CAATGTTAAAGACACATGAACGTTGGGATA
DNA 2: TATCCCAACGTTCATGTGTCTTTAACATTG
B2: M2H E2 (dsDNA)
DNA 1: GATGACTATTTTCATTTGATAATATATCCA
DNA 2: TGGATATATTATCAAATGAAAATAGTCATC
B3: AtM2H (Arabidopsis melatonin 2-hydroxylase) (Arabidopsis thaliana) (protein)
chain: MEETNKSVVNDYFTSAMELTESGDPHVPTRYILPPSQRPMLGPSIGTSTINLPVIDLSFLHDPLLRLCVIHEIELACKGFGFFQVINHGISSAVVKDAQDSATRFFDLPADEKMHLVSDNFQEPVRYGTSINHSTDRVHYWRDFIKHYSHPLSNWINLWPSNPPCYKEKVGKYAEATHVLHKQLIEAISESLGLEKNYLQEEIEEGSQVMAVNCYPACPEPEIALGMPPHSDYGSLTILLQSSEGLQIKDCNNNWVCVPYIEGALIVQLGDQVEVMSNGIYKSVVHRVTVNKDYKRLSFASLHSLPMHKKISPATQLVNENKPAAYGEFSFNDFLDYISRNDITQKRFIDTLRKKNL
B4: M3H E1/E2 (dsDNA)
DNA 1: CATACCATATGTCTTTTATCATCTGTCCTT
DNA 2: AAGGACAGATGATAAAAGACATATGGTATG

Key:
Trx-PIF4 [1] = target: T1, Trx-PIF4; assay: EMSA; greatest binding of the probes; LightShift Chemiluminescent EMSA Kit, 100 fmol biotin-labeled DNA, 20 min at room temperature, native 6% PAGE in 0.5x TBE; binding buffer, salt and pH not stated; conditions: protein: recombinant; tags: N-terminal Trx (pET32b); label: 3' biotin
Trx-PIF4 [2] = target: T1, Trx-PIF4; assay: EMSA; LightShift Chemiluminescent EMSA Kit, 100 fmol biotin-labeled DNA, 20 min at room temperature, native 6% PAGE in 0.5x TBE; binding buffer, salt and pH not stated; conditions: protein: recombinant; tags: N-terminal Trx (pET32b); label: 3' biotin
purified protein = substrate: COc1ccc2[nH]cc(CCNC(C)=O)c2c1; assay: purified protein; conditions: pH 8.0, GST fusion protein, substrate not named beside the value, implied by M2H activity

| Binder | binding result (Trx-PIF4 [2]) | further results |
| --- | --- | --- |
| B1 | – | binding result (Trx-PIF4 [1]): binds |
| B2 | binds | – |
| B3 | – | Km (purified protein): 355 µM |
| B4 | binds | – |
